System: Escherichia coli TOP10
Experiment: shrunken log2 fold change of peptide-encoding DNA abundance (4.5 h post-induction vs induction); higher = less antimicrobial activity (less host growth inhibition)
Details: time post-induction: 4.5 h; library: site-saturation at positions 5, 18, 19, 20
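Also: peptides expressed intracellularly from a pBAD plasmid library in pooled LB shake-flask culture, induced with 0.3% L-arabinose, DNA abundance read by NGS, three biological replicates, DESeq2 with apeglm shrinkage.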

Sequence	shrunken log2 fold change
RRIRPRPPRLPRPRPRPAMSPRP	0.128
RRIRCRPPRLPRPRPRPPTSPRP	0.428
RRIRTRPPRLPRPRPRPEKRPRP	-0.0149
RRIRSRPPRLPRPRPRPQHQPRP	-0.0399
RRIRRRPPRLPRPRPRPDCTPRP	0.252
RRIRFRPPRLPRPRPRPMATPRP	-0.227
RRIRARPPRLPRPRPRPVDNPRP	0.0773
RRIRGRPPRLPRPRPRPKPVPRP	0.985
RRIRYRPPRLPRPRPRPHTFPRP	-0.14
RRIRCRPPRLPRPRPRPSGEPRP	0.299
RRIRRRPPRLPRPRPRPYRDPRP	-0.111
RRIRARPPRLPRPRPRPPLHPRP	0.467
RRIRCRPPRLPRPRPRPNCYPRP	-0.209
RRIRTRPPRLPRPRPRPQNVPRP	0.0194
RRIRVRPPRLPRPRPRPHCLPRP	-1.63
RRIRLRPPRLPRPRPRPEWAPRP	-0.0233
RRIRNRPPRLPRPRPRPDFGPRP	-0.0978
RRIRKRPPRLPRPRPRPPYMPRP	-0.209
RRIRLRPPRLPRPRPRPWLRPRP	-0.0452
RRIRMRPPRLPRPRPRPITEPRP	-0.012
RRIRSRPPRLPRPRPRPFSSPRP	-0.113
RRIRSRPPRLPRPRPRPRGNPRP	0.0829
RRIRIRPPRLPRPRPRPFIVPRP	-0.105

Sequence	shrunken log2 fold change
RRIRKRPPRLPRPRPRPSKDPRP	0.395
RRIRTRPPRLPRPRPRPVDWPRP	0.0292
RRIRSRPPRLPRPRPRPTRDPRP	0.701
RRIRHRPPRLPRPRPRPPCPPRP	-0.0235
RRIRYRPPRLPRPRPRPEMGPRP	-0.0771
RRIRDRPPRLPRPRPRPFTEPRP	-0.165
RRIRNRPPRLPRPRPRPRAFPRP	0.0795
RRIRVRPPRLPRPRPRPGVLPRP	0.0138
RRIRPRPPRLPRPRPRPIAAPRP	0.621
RRIRRRPPRLPRPRPRPDPHPRP	0.296
RRIRHRPPRLPRPRPRPRFIPRP	-0.135
RRIRERPPRLPRPRPRPQLTPRP	-0.576
RRIRIRPPRLPRPRPRPTWYPRP	-0.668
RRIRWRPPRLPRPRPRPWYAPRP	-0.746
RRIRHRPPRLPRPRPRPFKCPRP	-0.0134
RRIRFRPPRLPRPRPRPQDSPRP	-0.113
RRIRQRPPRLPRPRPRPIDDPRP	-0.112
RRIRNRPPRLPRPRPRPKWSPRP	0.0717
RRIRWRPPRLPRPRPRPHFSPRP	-0.205
RRIRTRPPRLPRPRPRPGGRPRP	0.384
RRIRERPPRLPRPRPRPYSTPRP	-0.335
RRIRQRPPRLPRPRPRPFWSPRP	-0.00402
RRIRTRPPRLPRPRPRPISIPRP	-0.477

Sequence	shrunken log2 fold change
RRIRHRPPRLPRPRPRPGWKPRP	0.0976
RRIRQRPPRLPRPRPRPWCCPRP	0.0636
RRIRIRPPRLPRPRPRPWGCPRP	-0.307
RRIRNRPPRLPRPRPRPWTPPRP	-0.0926
RRIRFRPPRLPRPRPRPEGIPRP	0.00745
RRIRWRPPRLPRPRPRPHYDPRP	-0.0735
RRIRYRPPRLPRPRPRPTCCPRP	-0.194
RRIRQRPPRLPRPRPRPIACPRP	-0.238
RRIRIRPPRLPRPRPRPVYAPRP	-0.517
RRIRHRPPRLPRPRPRPEMMPRP	-0.0229
RRIRGRPPRLPRPRPRPDIIPRP	0.188
RRIRMRPPRLPRPRPRPVGKPRP	0.216
RRIRDRPPRLPRPRPRPEFGPRP	0.914
RRIRDRPPRLPRPRPRPDSCPRP	0.0444
RRIRCRPPRLPRPRPRPGDLPRP	-0.314
RRIRDRPPRLPRPRPRPYPKPRP	-0.143
RRIRSRPPRLPRPRPRPFPWPRP	-0.0834
RRIRRRPPRLPRPRPRPCASPRP	0.0214
RRIRWRPPRLPRPRPRPTNLPRP	-0.0698
RRIRERPPRLPRPRPRPVCQPRP	0.121
RRIRIRPPRLPRPRPRPKNCPRP	-0.164
RRIRQRPPRLPRPRPRPWVVPRP	0.0305
RRIRRRPPRLPRPRPRPVSKPRP	0.24

Sequence	shrunken log2 fold change
RRIRMRPPRLPRPRPRPPPLPRP	1.58
RRIRSRPPRLPRPRPRPRFCPRP	0.23
RRIRRRPPRLPRPRPRPHGDPRP	0.0543
RRIRYRPPRLPRPRPRPQSLPRP	-0.0376
RRIRARPPRLPRPRPRPFARPRP	-0.0584
RRIRGRPPRLPRPRPRPTKCPRP	0.684
RRIRTRPPRLPRPRPRPFNYPRP	-0.269
RRIRDRPPRLPRPRPRPEYRPRP	-0.0165
RRIRCRPPRLPRPRPRPYFLPRP	-0.823
RRIRTRPPRLPRPRPRPRRVPRP	0.329
RRIRFRPPRLPRPRPRPQLRPRP	0.0318
RRIRWRPPRLPRPRPRPFVLPRP	0.231
RRIRRRPPRLPRPRPRPVDHPRP	0.34
RRIRQRPPRLPRPRPRPMLMPRP	-0.0108
RRIRLRPPRLPRPRPRPYYGPRP	-0.838
RRIRKRPPRLPRPRPRPCWVPRP	0.259
RRIRLRPPRLPRPRPRPITFPRP	0.0415
RRIRQRPPRLPRPRPRPNNWPRP	-0.0942
RRIRGRPPRLPRPRPRPPKPPRP	0.919
RRIRPRPPRLPRPRPRPKMNPRP	-0.273
RRIRWRPPRLPRPRPRPHDKPRP	0.0422
RRIRYRPPRLPRPRPRPGFSPRP	-0.0944
